1 protein from PMC6826779, “Bis-allylic Deuterated DHA Alleviates Oxidative Stress in Retinal Epithelial Cells” (Antioxidants, 2019) can be followed below.

Substrate in data set [1]: CC/C=C\C/C=C\C/C=C\C/C=C\C/C=C\C/C=C\CCC(=O)O
Put plainly: Kinetics parameters of 15s-LOX (UV 270 nm, Michaelis-Menten). Type of data set: biochemical, Glycine max (soybean). The following applies: other: 15s-LOX, substrate 0.02-0.2 mM, borate buffer pH 9, 20 °C. As for the experimental part:
(§1) The activity of 15-sLOX was monitored on a Beckman Coulter DU730 Life Sciences UV-visible spectrometer at a wavelength of 270 nm monitoring the conjugated triene structure in the dihydroxylation products. For the measurements a reaction mixture of DHA or deuterated DHA (0.02 mM; 0.04 mM; 0.1 mM and 0.2 mM) was prepared in 750 µL sodium borate buffer (50 mM, pH 9) by ultrasonification for 10 s. The reaction was subsequently initiated by the addition of 10 µL 15-sLOX (4 mg/mL) to make a total volume of 760 µL in a Hellma CEL2056 quartz cuvette with 1 cm path length (20 °C). The initial reaction rates (V(0)), derived from the recorded UV-absorbance using the law of Lambert-Beer (molar extinction coefficient = 40,000), were plotted against the respective DHA concentrations and fitted to Michaelis-Menten kinetics in GraphPad Prism 7.0. All V(0) values were determined in triplicate and the average of three independent experiments was plotted against the substrate concentrations to yield Michaelis-Menten kinetics.

Substrate in data set [2]: CCC=CCC=CCC=CCC=CCC=CCC=CCCC(=O)O
Described as above. Type of data set: biochemical, Glycine max (soybean). The following applies: other: 15s-LOX, substrate 0.02-0.2 mM, borate buffer pH 9, 20 °C. As for the experimental part: as §1

B1: 15-sLOX (Glycine max) (protein)
chain: MFSAGHKIKGTVVLMPKNELEVNPDGSAVDNLNAFLGRSVSLQLISATKADAHGKGKVGKDTFLEGINTSLPTLGAGESAFNIHFEWDGSMGIPGAFYIKNYMQVEFFLKSLTLEAISNQGTIRFVCNSWVYNTKLYKSVRIFFANHTYVPSETPAPLVSYREEELKSLRGNGTGERKEYDRIYDYDVYNDLGNPDKSEKLARPVLGGSSTFPYPRRGRTGRGPTVTDPNTEKQGEVFYVPRDENLGHLKSKDALEIGTKSLSQIVQPAFESAFDLKSTPIEFHSFQDVHDLYEGGIKLPRDVISTIIPLPVIKELYRTDGQHILKFPQPHVVQVSQSAWMTDEEFAREMIAGVNPCVIRGLEEFPPKSNLDPAIYGDQSSKITADSLDLDGYTMDEALGSRRLFMLDYHDIFMPYVRQINQLNSAKTYATRTILFLREDGTLKPVAIELSLPHSAGDLSAAVSQVVLPAKEGVESTIWLLAKAYVIVNDSCYHQLMSHWLNTHAAMEPFVIATHRHLSVLHPIYKLLTPHYRNNMNINALARQSLINANGIIETTFLPSKYSVEMSSAVYKNWVFTDQALPADLIKRGVAIKDPSTPHGVRLLIEDYPYAADGLEIWAAIKTWVQEYVPLYYARDDDVKNDSELQHWWKEAVEKGHGDLKDKPWWPKLQTLEDLVEVCLIIIWIASALHAAVNFGQYPYGGLIMNRPTASRRLLPEKGTPEYEEMINNHEKAYLRTITSKLPTLISLSVIEILSTHASDEVYLGQRDNPHWTSDSKALQAFQKFGNKLKEIEEKLVRRNNDPSLQGNRLGPVQLPYTLLYPSSEEGLTFRGIPNSISI
As usually defined, the Km is the substrate concentration at which the rate is half of its maximum. For the protein B1, the Km in data set [1] (substrate D2-DHA) was 36.3 µM; in data set [1] (substrate Natural DHA), 68 µM; in data set [2], 57.4 µM.
